Measurements taken from patent publication US20210348149A1 (Alexion, published 2021).

Biological target: T1, r-Antidote (two-chain polypeptide, SEQ ID NO: 3); processed product of the precursor SEQ ID NO: 2 after … (human, UniProt P00742 80-179); P00742 235-488, in certain production batches: glycosylation at Thr249; in certain production batches: glycosylation at Ser56, Ser72, Ser76 and Thr82; (3R)-3-hydroxyAsp at Asp29)
T1 construct: Light and heavy chain are joined by a disulfide bond, Cys98 of the light chain to Cys108 of the heavy chain; also called fXa antidote; fXa derivative
Experiment: affinity chromatography with immobilised STI ligand (Example 2)
Method: An affinity chromatograph was developed for high-volume extraction of the antidote. The affinity ligand included Kunitz trypsin inhibitor (21 kDa; pI=4.5) extracted from whole soybean or flour. The soybean trypsin inhibitor (STI) forms 1:1 complex with the antidote. A non-competitive inhibitor elution condition was identified for scalability and compatibility, which included 25 mM Na-acetate, 1M Arginine, at pH 5.2.
Affinity column chromatography was performed using Capto STI resin at ambient temperature. During the load phase, the product bound to the resin while contaminants flew through. The product was recovered by disrupting protein interactions with a high concentration of arginine in the elution buffer. Prior to use, the column was rinsed with water for injection (WFI), cleaned with 100 mM Phosphoric Acid pH 3.0, and rinsed with WFI. The column was initially pre-equilibrated with pre-equilibration buffer (20 mM Tris-HCl, pH 7.4), then equilibrated with equilibration buffer (20 mM Tris-HCl, 200 mM NaCl, pH 7.4), and once the pH and conductivity of the column were within specification, it was loaded with Triton-X 100 treated clarified harvest (HCCF). Each cycle of HCCF material was transferred from its viral inactivation hold tank directly to the column.

T1 sequence (P00742 other isoform, or with tags, fused parts or gaps limits assumed, chain 1 of 2): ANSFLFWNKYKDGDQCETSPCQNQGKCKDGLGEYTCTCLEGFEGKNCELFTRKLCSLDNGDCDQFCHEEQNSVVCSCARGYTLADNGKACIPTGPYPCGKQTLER
T1 sequence (P00742 235-488 S419A limits assumed, chain 2 of 2): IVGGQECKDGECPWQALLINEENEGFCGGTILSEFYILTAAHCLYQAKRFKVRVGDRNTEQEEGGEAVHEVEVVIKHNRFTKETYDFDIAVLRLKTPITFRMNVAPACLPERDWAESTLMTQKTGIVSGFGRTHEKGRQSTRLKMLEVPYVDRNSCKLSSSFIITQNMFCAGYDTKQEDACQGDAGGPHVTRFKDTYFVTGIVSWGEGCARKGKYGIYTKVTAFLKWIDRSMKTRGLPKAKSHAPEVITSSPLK

B1: soybean trypsin inhibitor (STI), Kunitz trypsin inhibitor (21 kDa; pI=4.5) extracted from whole soybean or flour (other, soybean (Glycine max), UniProt P01070 25-205, looked up)
chain: DFVLDNEGNPLENGGTYYILSDITAFGGIRAAPTGNERCPLTVVQSRNELDKGIGTIISSPYRIRFIAEGHPLSLKFDSFAVIMLCVGIPTEWSVVEDLPEGPAVKIGENKDAMDGWFRLERVSDDEFNNYKLVFCPQQAEDDKCGDIGISIDHDDGTRRLVVSKNKPLVVQFQKLDKESL
notes: also called STI ligand
Q: Does B1 bind?
A: binds
